According to patent publication US20160083473A1 (NUMAB THERAPEUTICS, published 2016):

T1: cynomolgus IL23R Fc chimera (cynomolgus monkey, UniProt G7NWY5 24-353)
T1 construct: source of the cynomolgus chimera is not clearly stated; also called cyno IL23R; not shown: Fc part of the chimera
T1 sequence: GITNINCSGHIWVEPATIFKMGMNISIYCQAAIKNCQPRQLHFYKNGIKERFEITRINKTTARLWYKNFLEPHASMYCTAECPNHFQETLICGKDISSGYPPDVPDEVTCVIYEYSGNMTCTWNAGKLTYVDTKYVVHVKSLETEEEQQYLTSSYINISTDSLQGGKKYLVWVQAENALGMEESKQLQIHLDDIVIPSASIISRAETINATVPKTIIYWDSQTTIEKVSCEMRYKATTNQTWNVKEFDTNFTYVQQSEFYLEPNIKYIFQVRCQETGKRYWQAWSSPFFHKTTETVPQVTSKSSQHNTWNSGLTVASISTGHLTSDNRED

T2: mouse IL23R Fc chimera (R&D Systems, Cat. No. 1686-MR-050) (mouse, UniProt Q8K4B4 24-372)
T2 construct: bought; Fc part of the bought chimera not given
T2 sequence (looked up): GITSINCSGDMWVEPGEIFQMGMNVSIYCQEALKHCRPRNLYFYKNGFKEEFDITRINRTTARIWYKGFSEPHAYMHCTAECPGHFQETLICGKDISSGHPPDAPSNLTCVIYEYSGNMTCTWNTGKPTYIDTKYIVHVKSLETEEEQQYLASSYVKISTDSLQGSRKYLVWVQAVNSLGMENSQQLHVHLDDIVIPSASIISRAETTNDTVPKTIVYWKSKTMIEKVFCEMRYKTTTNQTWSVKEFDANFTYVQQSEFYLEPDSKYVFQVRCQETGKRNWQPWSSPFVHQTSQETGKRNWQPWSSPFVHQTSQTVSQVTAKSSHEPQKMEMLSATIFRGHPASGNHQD

T3: human heterodimeric single-chain CD3γδ extracellular domain (produced in-house) (human)
T3 chain 1: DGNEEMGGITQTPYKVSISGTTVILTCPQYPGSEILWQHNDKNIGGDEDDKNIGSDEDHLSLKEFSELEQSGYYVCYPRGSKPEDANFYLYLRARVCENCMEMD
T3 chain 2: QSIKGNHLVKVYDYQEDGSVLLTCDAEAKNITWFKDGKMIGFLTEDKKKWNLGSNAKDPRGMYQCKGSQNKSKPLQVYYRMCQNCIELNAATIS

B1: humanized anti-IL23R scFv 14-11-D07-sc01 (scFv, V domains shown)
VH: EVQLVESGGGLVQPGGSLRLSCAASGIDFNSNYYMCWVRQAPGKGLEWIGCIYVGSHVNTYYANWAKGRFTISRDNSKNTVYLQMNSLRAEDTAVYYCATSGSSVLYFKFWGQGTLVTVSS
VL: DIQMTQSPSSLSASVGDRVTITCQASENIYSFLAWYQQKPGKAPKLLIYSASKLAAGVPSRFSGSGSGTDFTLTISSLQPEDFATYYCQQTNRYSNPDIYNVFGQGTKLTVLG
notes: tested as a single-chain Fv; CDR graft on a Vk1/VH3 human acceptor framework
B2: PRO165, bispecific anti-IL23R x CD3ε single-chain diabody (bispecific antibody)
chain: DIQMTQSPSSLSASVGDRVTITCQASENIYSFLAWYQQKPGKAPKLLIYSASKLAAGVPSRFSGSGSGTDFTLTISSLQPEDFATYYCQQTNRYSNPDIYNVFGQGTKLTVLGGGGGSEVQLVESGGGLVQPGGSLRLSCAASGFPLSSYAMIWVRQAPGKGLEWIGMILRAGNIYYASWVKGRFTISRDNSKNTVYLQMNSLRAEDTAVYYCARRHYNREGYPIGIGDLWGQGTLVTVSSGGGGSGGGGSGGGGSGGGGSDIQMTQSPSSLSASVGDRVTITCQSSESVYNNKRLSWYQQKPGKAPKLLIYTASSLASGVPSRFSGSGSGTDFTLTISSLQPEDFATYYCQGEFTCSNADCFTFGQGTKLTVLGGGGGSEVQLVESGGGLVQPGGSLRLSCAASGIDFNSNYYMCWVRQAPGKGLEWIGCIYVGSHVNTYYANWAKGRFTISRDNSKNTVYLQMNSLRAEDTAVYYCATSGSSVLYFKFWGQGTLVTVSS
notes: VL(anti-IL23R 14-11-D07-sc01)-G4S-VH(anti-CD3 clone 6)-(G4S)4-VL(anti-CD3 clone 6)-G4S-VH(anti-IL23R 14-11-D07-sc01); also called scDb

Assays:
[1] = molecular target: T4, recombinant human IL23R Fc chimera (R&D Systems, Cat. No. 1400-IR-050) (human, UniProt Q5VWK5 24-353); experiment: SPR, IL23R Fc chimera captured by anti-human IgG Fc, scFv injected
T4 construct: bought
Procedure: (§1) Binding affinities of anti-IL23R scFvs were measured by surface plasmon resonance (SPR) using a MASS-1 SPR instrument (Sierra Sensors). […] After immobilization, 1 ug/ml recombinant human IL23R Fc chimera (R&D Systems, Cat. No. 1400-IR-050) was captured by the anti-human IgG antibody while a second immobilized channel served as a control where the capture was replaced by buffer. Two-fold serial dilutions of human scFvs ranging from 180 to 2.81 nM were injected into both flow cells for 3 min and dissociation of the scFvs from the chimera on the sensor chip was allowed to proceed for 700 sec. After each injection cycle, surfaces were regenerated with two 1 min injections of 10 mM glycine-HCl pH 1.5. In a similar manner the affinities for cynomolgus and mouse IL23R Fc chimera (R&D Systems, Cat. No. 1686-MR-050) was measured. The apparent dissociation (kd) and association (ka) rate constants and the apparent dissociation equilibrium constant (KD) were calculated with the MASS-1 analysis software (Analyzer, Sierra Sensors) using one-to-one Langmuir binding model.

[2] = molecular target: T1, cynomolgus IL23R Fc chimera; experiment: as above
Procedure: as §1

[3] = molecular target: T2, mouse IL23R Fc chimera (R&D Systems, …); experiment: as above
Procedure: as §1

[4] = molecular target: T3, human heterodimeric single-chain CD3γδ …; experiment: SPR, human single-chain CD3 ECD immobilised by amine coupling, scDb injected

| Binder | Kd [1] [nM] | koff [1] [s⁻¹] | kon [1] [M⁻¹ s⁻¹] | Kd [2] [nM] | koff [2] [s⁻¹] | kon [2] [M⁻¹ s⁻¹] | Kd [3] [nM] | koff [3] [s⁻¹] | kon [3] [M⁻¹ s⁻¹] | Kd [4] [nM] | koff [4] [s⁻¹] | kon [4] [M⁻¹ s⁻¹] |
| --- | --- | --- | --- | --- | --- | --- | --- | --- | --- | --- | --- | --- |
| B1 | 0.116 | 0.000259 | 2.24e+06 | 0.124 | 0.000361 | 2.92e+06 | 2.21 | 0.00418 | 1.89e+06 |  |  |  |
| B2 |  |  |  |  |  |  |  |  |  | 11.6 | 0.00126 | 109000 |
